# Values of other authors, collected in article PMC8298264, “Function of cofactor Akirin2 in the regulation of gene expression in model human neutrophil-like HL60 cells” (Bioscience Reports, 2021).
# B1: UBAC1 (protein, UniProt Q9BSL1 1-405, looked up)
# Ubiquitin-associated …: MFVQEEKIFAGKVLRLHICASDGAEWLEEATEDTSVEKLKERCLKHCAHGSLEDPKSITHHKLIHAASERVLSDARTILEENIQDQDVLLLIKKRAPSPLPKMADVSAEEKKKQDQKAPDKEAILRATANLPSYNMDRAAVQTNMRDFQTELRKILVSLIEVAQKLLALNPDAVELFKKANAMLDEDEDERVDEAALRQLTEMGFPENRATKALQLNHMSVPQAMEWLIEHAEDPTIDTPLPGQAPPEAEGATAAASEAAAGASATDEEARDELTEIFKKIRRKREFRADARAVISLMEMGFDEKEVIDALRVNNNQQNAACEWLLGDRKPSPEELDKGIDPDSPLFQAILDNPVVQLGLTNPKTLLAFEDMLENPLNSTQWMNDPETGPVMLQISRIFQTLNRT
# B2: TOMM34 (protein, UniProt Q15785 1-309, looked up)
# Mitochondrial import receptor …: MAPKFPDSVEELRAAGNESFRNGQYAEASALYGRALRVLQAQGSSDPEEESVLYSNRAACHLKDGNCRDCIKDCTSALALVPFSIKPLLRRASAYEALEKYPMAYVDYKTVLQIDDNVTSAVEGINRMTRALMDSLGPEWRLKLPSIPLVPVSAQKRWNSLPSENHKEMAKSKSKETTATKNRVPSAGDVEKARVLKEEGNELVKKGNHKKAIEKYSESLLCSNLESATYSNRALCYLVLKQYTEAVKDCTEALKLDGKNVKAFYRRAQAHKALKDYKSSFADISNLLQIEPRNGPAQKLRQEVKQNLH
# Test system: AKR2
# Set-up: key: A: Very high confidence in the interaction; B: High confidence in the interaction; D: Moderate confidence in the interaction
# Settings: AKR2-interacting proteins (IPs), physical interactome; ref https://doi.org/10.3390/vaccines8010077; cited from earlier work
# Excerpt: Supplement BSR-2021-1120_supp1.zip/BSR-2021-1120_suppST4.xlsx, sheet "BPs related to AKR2-IPs" | column: Predicted Biological Score (PBS)
row,Molecule,Predicted Biological Score (PBS)
1,B1,A
2,B2,A
